Target: TLR2/TLR6 heterodimer
Test: cell-based or functional assay

Substance	NF-κB activation
CBLB613 (peptide)	200
CBLB617 (peptide)	100

Source: patent publication US8524668
